Measured values: article doi:10.1101/2021.04.12.439291 (bioRxiv, 2021)

B1: Ubc2 (yeast) (enzyme, Saccharomyces cerevisiae, UniProt P06104 1-172, looked up)
chain: MSTPARRRLMRDFKRMKEDAPPGVSASPLPDNVMVWNAMIIGPADTPYEDGTFRLLLEFDEEYPNKPPHVKFLSEMFHPNVYANGEICLDILQNRWTPTYDVASILTSIQSLFNDPNPASPANVEAATLFKDHKSQYVKRVKETVEKSWEDDMDDMDDDDDDDDDDDDDEAD

Legend:
[1] = target: Ubr1 (yeast, FLAG-tagged) (Saccharomyces cerevisiae, UniProt P19812 1-1950); assay: cryo-EM structure
[2] = target: B1; assay: ITC

Chain of Ubr1 (yeast, FLAG-tagged) (P19812 whole entry): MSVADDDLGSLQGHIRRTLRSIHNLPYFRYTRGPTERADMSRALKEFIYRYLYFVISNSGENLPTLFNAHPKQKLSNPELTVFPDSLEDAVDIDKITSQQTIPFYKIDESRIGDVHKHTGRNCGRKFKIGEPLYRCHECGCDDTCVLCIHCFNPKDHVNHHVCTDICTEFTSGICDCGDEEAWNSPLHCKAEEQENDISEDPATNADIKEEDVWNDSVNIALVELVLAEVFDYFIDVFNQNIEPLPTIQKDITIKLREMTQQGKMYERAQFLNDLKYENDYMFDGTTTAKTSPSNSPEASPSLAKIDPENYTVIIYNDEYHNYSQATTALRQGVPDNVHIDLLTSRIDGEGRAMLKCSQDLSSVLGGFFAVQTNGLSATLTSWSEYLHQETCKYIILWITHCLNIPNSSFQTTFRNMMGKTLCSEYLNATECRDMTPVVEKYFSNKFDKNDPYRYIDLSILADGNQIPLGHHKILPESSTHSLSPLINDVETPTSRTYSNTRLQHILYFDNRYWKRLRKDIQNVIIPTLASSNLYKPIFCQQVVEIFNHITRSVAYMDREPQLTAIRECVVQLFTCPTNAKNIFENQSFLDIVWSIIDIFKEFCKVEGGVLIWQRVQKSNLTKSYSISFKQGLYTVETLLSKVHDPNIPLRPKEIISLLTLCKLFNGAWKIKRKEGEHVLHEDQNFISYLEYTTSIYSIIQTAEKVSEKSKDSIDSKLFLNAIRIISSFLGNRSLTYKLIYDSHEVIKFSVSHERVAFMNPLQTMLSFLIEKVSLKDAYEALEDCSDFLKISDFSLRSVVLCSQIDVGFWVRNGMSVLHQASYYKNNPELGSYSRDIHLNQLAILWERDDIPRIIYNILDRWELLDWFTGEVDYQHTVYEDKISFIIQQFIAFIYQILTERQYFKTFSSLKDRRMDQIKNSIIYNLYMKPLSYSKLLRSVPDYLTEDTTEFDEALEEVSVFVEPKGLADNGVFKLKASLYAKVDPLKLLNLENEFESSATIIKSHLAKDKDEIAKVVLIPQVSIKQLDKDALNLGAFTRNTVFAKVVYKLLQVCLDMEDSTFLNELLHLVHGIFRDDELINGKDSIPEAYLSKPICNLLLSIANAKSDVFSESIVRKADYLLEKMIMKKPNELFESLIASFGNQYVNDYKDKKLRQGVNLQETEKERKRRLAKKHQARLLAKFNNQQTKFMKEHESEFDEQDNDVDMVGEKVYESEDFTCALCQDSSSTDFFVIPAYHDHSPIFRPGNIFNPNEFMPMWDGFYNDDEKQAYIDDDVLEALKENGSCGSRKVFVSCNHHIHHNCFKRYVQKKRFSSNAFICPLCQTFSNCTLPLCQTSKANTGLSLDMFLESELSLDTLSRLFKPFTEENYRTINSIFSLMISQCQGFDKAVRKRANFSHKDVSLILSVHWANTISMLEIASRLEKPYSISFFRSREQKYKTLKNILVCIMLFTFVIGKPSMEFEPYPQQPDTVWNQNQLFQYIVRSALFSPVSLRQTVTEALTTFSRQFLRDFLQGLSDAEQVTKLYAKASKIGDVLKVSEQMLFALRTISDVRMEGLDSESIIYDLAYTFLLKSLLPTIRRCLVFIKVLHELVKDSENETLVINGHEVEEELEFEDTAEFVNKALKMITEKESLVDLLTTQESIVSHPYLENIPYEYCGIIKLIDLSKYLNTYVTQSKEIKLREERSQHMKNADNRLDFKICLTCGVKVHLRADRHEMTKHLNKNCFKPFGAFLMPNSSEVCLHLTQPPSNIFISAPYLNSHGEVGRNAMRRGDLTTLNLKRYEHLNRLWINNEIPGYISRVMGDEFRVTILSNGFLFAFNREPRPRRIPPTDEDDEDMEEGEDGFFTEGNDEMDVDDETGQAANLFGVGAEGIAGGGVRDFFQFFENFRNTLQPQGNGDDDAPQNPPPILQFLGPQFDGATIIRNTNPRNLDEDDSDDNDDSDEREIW

| Binder | binding result [1] | Kd [2] |
| --- | --- | --- |
| B1 | binds |  |
| KERKRRLAKKHQARLLAKFNNQQTKFMKEHESEFDE (peptide, UniProt P19812 1165-1200, looked up) [U2BR peptide (Ubr1 1165-1200)] |  | 143 ± 45 nM |
